Measured values reported in PMC2998434, “Domain Swapping in Allosteric Modulation of DNA Specificity” (PLoS Biology, 2010).

How the values were obtained:
SgrAI wild type = biological target: T1, SgrAI wild type (UniProt Q9F6L0 1-339); experiment: X-ray crystal structure, 2.03 A; 50 mM CaCl2; two Ca2+ per active site; domain-swapped tetramer with two duplexes; FPA: 20 mM Tris-OAc pH 8.0, 50 mM KOAc, 10 mM Ca(OAc)2, 1 mM DTT, 10% glycerol, 4 C, 1 nM DNA; native PAGE: same binding buffer, 1 uM SgrAI, 30 min at 4 C, gel; conditions: protein: recombinant; chain copies: 2; 5' overhang 1 nt (A) at each end; self-complementary, 2 strand copies
T1 sequence: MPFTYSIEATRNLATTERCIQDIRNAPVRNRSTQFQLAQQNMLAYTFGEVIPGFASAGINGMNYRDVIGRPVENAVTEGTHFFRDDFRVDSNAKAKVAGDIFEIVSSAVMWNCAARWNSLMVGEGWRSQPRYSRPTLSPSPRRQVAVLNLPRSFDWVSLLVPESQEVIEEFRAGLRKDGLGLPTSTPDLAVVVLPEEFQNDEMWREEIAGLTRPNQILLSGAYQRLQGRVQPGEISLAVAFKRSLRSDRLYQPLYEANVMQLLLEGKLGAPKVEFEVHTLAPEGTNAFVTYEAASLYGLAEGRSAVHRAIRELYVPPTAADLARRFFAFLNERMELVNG

[1] = biological target: the molecule itself; experiment: crystal structure; SgrAI with self-complementary 17-mer cognate DNA (1:2 SgrAI dimer:DNA duplex) and Ca2+; 14% PEG 4K, 0.1 M imidazole pH 6.5, 0.15 M NaCl, 0.05 M CaCl2, 17°C; two DNA bound dimers form a domain swapped tetramer (N counts subunits)
SgrAI P27W = biological target: T2, SgrAI P27W (UniProt Q9F6L0 1-339, P27W); experiment: fluorescence polarization anisotropy; 10 mM Ca2+; FPA: 20 mM Tris-OAc pH 8.0, 50 mM KOAc, 10 mM Ca(OAc)2, 1 mM DTT, 10% glycerol, 4 C, 1 nM DNA; native PAGE: same binding buffer, 1 uM SgrAI, 30 min at 4 C, gel; conditions: protein: recombinant, chain copies: 2
T2 sequence: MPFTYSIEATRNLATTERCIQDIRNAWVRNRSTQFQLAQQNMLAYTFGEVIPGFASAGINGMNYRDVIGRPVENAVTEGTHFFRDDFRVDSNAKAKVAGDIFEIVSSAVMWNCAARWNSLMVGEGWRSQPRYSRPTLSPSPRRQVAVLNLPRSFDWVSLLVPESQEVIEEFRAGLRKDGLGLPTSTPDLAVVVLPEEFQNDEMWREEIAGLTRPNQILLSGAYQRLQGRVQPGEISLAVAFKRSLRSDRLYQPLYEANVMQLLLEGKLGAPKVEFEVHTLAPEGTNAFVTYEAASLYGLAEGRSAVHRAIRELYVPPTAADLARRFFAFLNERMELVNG

SgrAI P27G = biological target: T3, SgrAI P27G (UniProt Q9F6L0 1-339, P27G); experiment: as above; conditions: protein: recombinant, chain copies: 2
T3 sequence: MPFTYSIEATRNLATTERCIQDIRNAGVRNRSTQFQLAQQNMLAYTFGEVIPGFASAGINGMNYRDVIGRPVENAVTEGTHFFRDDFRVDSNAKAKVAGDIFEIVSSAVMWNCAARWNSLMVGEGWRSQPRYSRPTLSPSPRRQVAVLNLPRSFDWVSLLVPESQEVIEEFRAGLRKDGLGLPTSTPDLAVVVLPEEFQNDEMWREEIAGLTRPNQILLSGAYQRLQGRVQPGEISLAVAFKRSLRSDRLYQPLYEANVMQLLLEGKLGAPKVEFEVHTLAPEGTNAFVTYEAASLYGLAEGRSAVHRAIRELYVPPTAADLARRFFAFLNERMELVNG

[2] = label: 5' HEX on both strands (FPA), 5' 32P (native gel), blunt, self-complementary, 2 strand copies
[3] = label: 5' FLO on top strand only

B1: 17-2 cognate (crystal DNA) (dsDNA)
DNA 1: AAGTCCACCGGTGGACT
DNA 2: AAGTCCACCGGTGGACT
binding result (SgrAI wild type): binds

B2: SgrAI restriction endonuclease, wild type (enzyme, Streptomyces griseus)
chain: PFTYSIEATRNLATTERCIQDIRNAPVRNRSTQFQLAQQNMLAYTFGEVIPGFASAGINGMNYRDVIGRPVENAVTEGTHFFRDDFRVDSNAKAKVAGDIFEIVSSAVMWNCAARWNSLMVGEGWRSQPRYSRPTLSPSPRRQVAVLNLPRSFDWVSLLVPESQEVIEEFRAGLRKDGLGLPTSTPDLAVVVLPEEFQNDEMWREEIAGLTRPNQILLSGAYQRLQGRVQPGEISLAVAFKRSLRSDRLYQPLYEANVMQLLLEGKLGAPKVEFEVHTLAPEGTNAFVTYEAASLYGLAEGRSAVHRAIRELYVPPTAADLARRFFAFLNERMELVNG
notes: the structure legends name residues 1-24 (swapping domain), 25-30 (hinge loop) and 31-339; residues 1-339 are named for the structure; also called WT SgrAI; wild type SgrAI dimer
stoichiometry N [1]: 4

B3: 18-1 (primary site) (dsDNA)
DNA 1: AAGTCCACCGGTGGACTT
DNA 2: AAGTCCACCGGTGGACTT
Kd (SgrAI P27W; [2]): 4 ± 0.8 nM | Kd (SgrAI P27G; [2]): 17 ± 5 nM

B4: PCP (precleaved primary site DNA) (dsDNA)
DNA 1: GATGCGTGGGTCTTCACA
DNA 2: CCGGTGTGAAGACCCACGCATC
modifications: 5' phosphate at the cleavage site
Kd (SgrAI P27W; [3]): 9 ± 2 nM | Kd (SgrAI P27G; [3]): 5 ± 2 nM
